From patent US7811561 (dated 2010)

T1: cdk4 (UniProt P30285 2-303)
T1 sequence (looked up): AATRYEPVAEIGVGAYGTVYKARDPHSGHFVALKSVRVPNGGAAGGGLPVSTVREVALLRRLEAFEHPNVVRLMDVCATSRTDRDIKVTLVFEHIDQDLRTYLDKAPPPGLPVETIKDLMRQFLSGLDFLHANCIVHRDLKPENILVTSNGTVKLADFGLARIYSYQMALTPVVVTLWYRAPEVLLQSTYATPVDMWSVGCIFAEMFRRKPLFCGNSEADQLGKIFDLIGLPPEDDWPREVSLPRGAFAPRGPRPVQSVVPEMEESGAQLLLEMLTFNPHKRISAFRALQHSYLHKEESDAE

B1: MCT-1 (Multiple Copies in T-cell malignancy) protein (other)
chain: MFKKFDEKENVSNCIQLKTSVIKGIKNQLIEQFPGIEPWLNQIMPKKDPVKIVRCHEHIEILTVNGELLFFRQREGPFYPTLRLLHKYPFILPHQQVDKGAIKFVLSGANIMCPGLTSPGAKLYPAAVDTIVAIMAEGKQHALCVGVMKMSAEDIEKVNKGIGIENIHYLNDGLWHMKTYK
notes: Expressed from the full length MCT-1 cDNA (pCMV-MCT-1) in stably transfected NIH 3T3 fibroblasts and tested in cell lysates
B2: cdk4 (protein)
chain: T1 sequence (looked up)
B3: cdk6 (protein)
chain: MEKDSLSRADQQYECVAEIGEGAYGKVFKARDLKNGGRFVALKRVRVQTSEEGMPLSTIREVAVLRHLETFEHPNVVRLFDVCTVSRTDRETKLTLVFEHVDQDLTTYLDKVPEPGVPTETIKDMMFQLLRGLDFLHSHRVVHRDLKPQNILVTSSGQIKLADFGLARIYSFQMALTSVVVTLWYRAPEVLLQSSYATPVDLWSVGCIFAEMFRRKPLFRGSSDVDQLGKILDIIGLPGEEDWPRDVALPRQAFHSKSAQPIEKFVTDIDELGKDLLLKCLTFNPAKRISAYGALNHPYFQDLERYKDNLNSHLPSNQSTSELNTA

Key:
[1] = target: T1, cdk4; assay: co-immunoprecipitation and immunoblotting, NIH 3T3 cell lysates
Procedure: (§1) TBS was Tris-buffered saline containing 0.1% (w/v) sodium dodecyl sulfate. Samples were pre-cleared with Protein-G beads (GIBCO, Grand Island, N.Y.) and either normal rabbit or mouse serum (each at a 1:1000 dilution). Immunoprecipitation of cyclin D1 was carried out for 12 hours at 4° C. Immune complexes were precipitated using 1 to 5 micrograms of antibody and Protein-G agarose, and were then heated at 95° C. for 5 minutes in IP buffer, which comprised 93 millimolar Tris, 3% (w/v) SDS, 1.1 millimolar β-mercaptoethanol, 0.03% (w/v) bromophenol blue (BPB), and 15% (v/v) glycerol (SIGMA, Saint Louis, Mo.) at a pH of 6.8. The eluant was analyzed using a denaturing, reducing SDS-PAGE gel, and the contents of the gel were transferred to supported nitrocellulose filter by electroblotting. Filters were incubated with 1 to 5 micrograms of an antibody which binds specifically with one of the following: cyclin D1, cdk4, cdk6, PCNA, and p21. Horseradish peroxidase-linked anti-mouse or anti-rabbit whole antibody was used as a secondary antibody. Chemiluminescence was detected using an ECL™ kit (Amersham Life Science, Arlington Heights, Ill.) according to the manufacturer's instruction.
(§2) An increased level of cyclin D1 protein was detected by immunoprecipitation in lysates from NIH 3T3 cells transfected with PCMV-MCT-1, relative to asynchronously grown control cells which were not transfected or which were transfected with control vector. Because cdk4 and cdk6 associate with cyclin D1 during cell cycle progression, complex formation among these molecules was investigated using co-immunoprecipitation analysis. Increased subunit complex formation in NIH 3T3 cells constitutively expressing MCT-1, relative to cells which were not transfected with a vector encoding MCT-1. Physical interaction of PCNA with cyclin D1-cdk4/cdk6 complexes was also investigated. Co-immunoprecipitation of cyclin D1 and PCNA was detected at an increased level, relative to cells which were not transfected with a vector encoding MCT-1. Direct physical interaction was not detected between MCT-1 and any of proteins cyclin D1, cdk4, cdk6, and PCNA under these assay conditions.

[2] = target: T2, cyclin D1 (UniProt P25322 1-295); assay: as above
T2 construct: Immunoprecipitated from NIH 3T3 lysates
T2 sequence (P25322 whole entry): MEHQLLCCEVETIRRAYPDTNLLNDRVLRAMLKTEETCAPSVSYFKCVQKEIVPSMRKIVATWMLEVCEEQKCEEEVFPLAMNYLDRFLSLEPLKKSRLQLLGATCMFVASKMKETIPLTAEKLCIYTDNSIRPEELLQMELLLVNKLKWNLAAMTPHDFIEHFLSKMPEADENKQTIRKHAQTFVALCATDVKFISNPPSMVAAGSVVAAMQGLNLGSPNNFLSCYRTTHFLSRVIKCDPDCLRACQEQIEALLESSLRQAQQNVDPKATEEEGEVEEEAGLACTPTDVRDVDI
Procedure: as §1, §2

[3] = target: cdk6 (UniProt Q64261 1-326); assay: as above
Procedure: as §1, §2

[4] = target: PCNA (UniProt P17918 1-261); assay: as above
Sequence of PCNA (P17918 whole entry): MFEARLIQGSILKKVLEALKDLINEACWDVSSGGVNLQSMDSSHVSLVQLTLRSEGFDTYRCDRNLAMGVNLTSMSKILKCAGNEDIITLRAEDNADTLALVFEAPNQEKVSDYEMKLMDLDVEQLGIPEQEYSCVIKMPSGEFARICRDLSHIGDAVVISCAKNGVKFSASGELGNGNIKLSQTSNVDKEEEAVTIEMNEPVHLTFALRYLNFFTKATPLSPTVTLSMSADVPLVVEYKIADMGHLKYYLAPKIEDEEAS
Procedure: as §1, §2

[5] = target: GST-RB (source of Rb protein substrate)

Row | Binder | binding result [1] | binding result [2] | binding result [3] | binding result [4] | in vitro immune complex kinase assay (32P phosphorylation of Rb protein) [5]
1 | B1 | no binding | no binding | no binding | no binding | 
2 | B2 |  |  |  |  | A markedly increased ability to phosphorylate Rb protein
3 | B3 |  |  |  |  | A markedly increased ability to phosphorylate Rb protein
